Test results: the supplement of paper PMC11136658

Test system: peptide library, one residue held at a place counted from the Y acceptor
Assay: relative phosphorylation of the sub-library (ratio to the mean residue at this position); higher = residue favoured
Outline: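 Every value reflects phosphorylation relative to the mean randomized residue. The sum of the 18 randomized residues, or 16 in the Ser/Thr-free library, served to normalize intensities at each position, which were then multiplied by that number. Intensities came from phosphorimaging with ImageQuant of biotinylated Tyr-centred peptides captured on streptavidin membranes after 90 min with purified recombinant kinases and 50 μM ATP plus γ-32P-ATP.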

Sequence of MKK4, construct: aa34-end, human (P45985 34-399, looked up): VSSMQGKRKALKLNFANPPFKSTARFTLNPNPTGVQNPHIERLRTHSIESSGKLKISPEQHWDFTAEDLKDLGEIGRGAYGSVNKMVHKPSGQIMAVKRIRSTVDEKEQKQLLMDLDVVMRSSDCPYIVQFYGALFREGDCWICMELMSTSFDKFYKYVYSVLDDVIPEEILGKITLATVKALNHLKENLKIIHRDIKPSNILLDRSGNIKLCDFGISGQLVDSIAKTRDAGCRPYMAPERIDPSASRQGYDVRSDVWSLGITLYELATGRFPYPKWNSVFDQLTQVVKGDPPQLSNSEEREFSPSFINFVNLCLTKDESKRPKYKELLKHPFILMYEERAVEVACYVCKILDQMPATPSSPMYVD
Sequence of TNNI3K, construct: aa1-727, human (Q59H18 1-727, looked up): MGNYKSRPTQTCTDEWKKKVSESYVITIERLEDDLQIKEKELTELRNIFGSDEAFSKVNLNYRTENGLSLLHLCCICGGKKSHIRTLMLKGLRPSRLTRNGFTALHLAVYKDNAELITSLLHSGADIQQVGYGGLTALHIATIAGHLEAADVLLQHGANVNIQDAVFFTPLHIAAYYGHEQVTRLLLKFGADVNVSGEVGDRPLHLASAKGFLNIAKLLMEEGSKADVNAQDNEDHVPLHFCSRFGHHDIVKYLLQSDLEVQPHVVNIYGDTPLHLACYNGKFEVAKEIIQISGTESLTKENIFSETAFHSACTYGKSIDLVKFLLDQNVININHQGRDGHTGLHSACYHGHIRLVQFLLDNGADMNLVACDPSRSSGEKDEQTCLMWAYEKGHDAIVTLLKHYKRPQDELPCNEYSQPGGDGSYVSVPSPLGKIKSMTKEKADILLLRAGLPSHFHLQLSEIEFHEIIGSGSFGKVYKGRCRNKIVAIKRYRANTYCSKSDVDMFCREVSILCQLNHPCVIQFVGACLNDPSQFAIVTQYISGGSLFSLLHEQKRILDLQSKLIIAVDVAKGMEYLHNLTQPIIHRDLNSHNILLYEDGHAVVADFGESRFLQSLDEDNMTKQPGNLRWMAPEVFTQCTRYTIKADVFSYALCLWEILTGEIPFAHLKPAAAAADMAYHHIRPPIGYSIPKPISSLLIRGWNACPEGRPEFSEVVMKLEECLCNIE

MKK4, construct: aa34-end, human (from UniProt P45985)
relative phosphorylation
Details | at +1 | at +2 | at +3 | at +4 | at +5 | at -1 | at -2 | at -3 | at -4 | at -5
A fixed | 1.14 | 0.979 | 0.996 | 1.06 | 0.902 | 0.986 | 1.01 | 0.916 | 1.11 | 1.06
D fixed | 1.32 | 1.29 | 1.03 | 1.2 | 1.02 | 1.49 | 1.18 | 0.991 | 1.09 | 0.992
E fixed | 1.26 | 1.05 | 1.16 | 1.05 | 1.18 | 1.2 | 1.17 | 0.898 | 1.09 | 1.06
F fixed | 0.867 | 1.1 | 1.08 | 1.12 | 1.13 | 0.844 | 1.06 | 1.05 | 1.06 | 1.17
G fixed | 1.49 | 1.25 | 1.12 | 1.15 | 1.18 | 1.58 | 1.02 | 0.961 | 1.2 | 1.18
H fixed | 0.87 | 0.959 | 0.981 | 1.22 | 1.04 | 0.866 | 0.994 | 1.01 | 1 | 1.11
I fixed | 0.748 | 0.79 | 0.796 | 0.795 | 0.79 | 0.898 | 0.72 | 0.833 | 0.785 | 0.884
K fixed | 0.786 | 0.846 | 0.923 | 0.837 | 0.909 | 0.638 | 1.09 | 1.07 | 0.878 | 0.915
L fixed | 0.892 | 0.859 | 0.806 | 0.855 | 0.941 | 1.03 | 0.974 | 0.991 | 0.905 | 0.905
M fixed | 1.05 | 0.907 | 0.949 | 0.904 | 0.88 | 1.11 | 0.922 | 0.934 | 0.918 | 0.873
N fixed | 0.957 | 1.03 | 0.898 | 0.844 | 0.9 | 0.905 | 0.983 | 0.939 | 0.86 | 0.984
P fixed | 1.11 | 1.32 | 1.34 | 1.37 | 1.22 | 1.04 | 1.05 | 0.928 | 1.08 | 1.09
Q fixed | 0.87 | 0.893 | 0.854 | 0.753 | 0.858 | 0.885 | 0.856 | 1.04 | 0.977 | 0.902
R fixed | 0.865 | 0.941 | 0.977 | 0.907 | 1.05 | 0.771 | 0.958 | 1.41 | 1.02 | 0.97
V fixed | 0.775 | 0.779 | 0.826 | 0.761 | 0.775 | 0.694 | 0.792 | 0.736 | 0.771 | 0.713
W fixed | 0.999 | 1.02 | 1.27 | 1.18 | 1.21 | 1.06 | 1.21 | 1.28 | 1.24 | 1.2
pThr fixed | 1.17 | 1.23 | 1.15 | 1.21 | 1.07 | 1.05 | 0.96 | 1.2 | 1.29 | 1.18
pTyr fixed | 1.25 | 0.974 | 1.18 | 0.991 | 1.22 | 2.13 | 1.28 | 1.25 | 1.18 | 1.18

TNNI3K, construct: aa1-727, human (from UniProt Q59H18)
relative phosphorylation
Details | at +1 | at +2 | at +3 | at +4 | at +5 | at -1 | at -2 | at -3 | at -4 | at -5
A fixed | 1.74 | 0.816 | 0.787 | 0.992 | 0.912 | 1.78 | 1.09 | 0.969 | 1.16 | 1.17
D fixed | 0.328 | 0.35 | 0.376 | 0.377 | 0.577 | 1.18 | 0.589 | 0.741 | 0.664 | 0.668
E fixed | 0.277 | 0.288 | 0.455 | 0.35 | 0.483 | 1.23 | 0.717 | 0.683 | 0.757 | 0.538
F fixed | 0.587 | 0.975 | 1.03 | 1.01 | 1.04 | 0.637 | 0.998 | 1.12 | 1.05 | 1.09
G fixed | 0.605 | 0.86 | 0.909 | 1.12 | 0.791 | 1.1 | 1.34 | 1.34 | 1.5 | 1.35
H fixed | 0.57 | 1.04 | 1.22 | 0.997 | 1.04 | 0.943 | 1.18 | 1.13 | 1.04 | 0.979
I fixed | 2.26 | 0.78 | 0.929 | 0.945 | 0.795 | 0.572 | 1.03 | 0.914 | 0.894 | 0.958
K fixed | 0.896 | 1.83 | 1.68 | 1.24 | 1.76 | 0.641 | 0.992 | 0.982 | 1.22 | 1.22
L fixed | 0.79 | 0.65 | 1.02 | 1.11 | 1.01 | 0.477 | 0.805 | 0.863 | 0.949 | 1.06
M fixed | 0.914 | 0.661 | 0.751 | 1.1 | 0.948 | 0.553 | 0.738 | 0.781 | 0.853 | 0.787
N fixed | 0.62 | 0.853 | 0.837 | 0.74 | 0.85 | 1.44 | 1.02 | 0.99 | 0.765 | 0.77
P fixed | 0.555 | 0.774 | 0.847 | 1.21 | 1.06 | 1.13 | 0.928 | 1.27 | 1.11 | 1.18
Q fixed | 0.746 | 0.978 | 1.13 | 0.952 | 0.861 | 1.24 | 1.05 | 0.815 | 0.925 | 0.808
R fixed | 1.23 | 2.79 | 2.39 | 1.73 | 1.98 | 0.687 | 1.4 | 1.07 | 1.25 | 1.21
V fixed | 2.88 | 0.736 | 0.835 | 0.979 | 0.83 | 0.701 | 0.996 | 1.05 | 0.947 | 0.98
W fixed | 0.784 | 1.39 | 0.892 | 1.27 | 1.08 | 0.579 | 1.11 | 1.37 | 1.27 | 1.46
pThr fixed | 0.215 | 0.234 | 0.259 | 0.263 | 0.44 | 0.253 | 0.593 | 0.715 | 0.515 | 0.622
pTyr fixed | 0.365 | 0.427 | 0.38 | 0.365 | 0.583 | 0.479 | 0.832 | 1.21 | 0.898 | 0.776
